Ends that are not written are not given here. * marks the point of attachment. Biotin = O=C1N[C@H]2[C@H](CS[C@H]2CCCCC(=O)*)N1
Assays:
Assay in all cases: ELISA, biotinylated JAK2 WT on plate-coated control peptide (FIG. 1A)
[1] = target: T1, VEGFR peptide (vascular endothelial growth factor receptor autophosphorylation peptide VEGFR 1208-1222)
T1 construct: Control peptide
T1 peptide: SSDVRYVNAFKFM

MuIFN-γ(95-125) peptide = target: T2, MuIFN-γ(95-125) peptide (murine)
T2 construct: Control peptide; numbering is on the mature form of murine IFN-γ
T2 peptide: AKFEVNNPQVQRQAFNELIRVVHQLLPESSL

[2] = target: T3, CDK-2 cyclin box peptide (cyclin-dependent kinase, cyclin box peptide 41-61)
T3 construct: Control peptide; also called CDK 41-61
T3 peptide: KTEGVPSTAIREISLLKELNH

Measured: binding result

B1: biotinylated JAK2 WT peptide (JAK2 autophosphorylation peptide, residues 1001-1013, LPQDKEYYKVKEP) (peptide)
peptide: Biotin-LPQDKEYYKVKEP
notes: Synthetic peptide, biotin incorporated at the N-terminus during synthesis; not phosphorylated at Y1007; also called wild type JAK2 peptide; unphosphorylated JAK2 WT
no binding: [1] | MuIFN-γ(95-125) peptide | [2]

Reference: US20040265963A1 (UNIVERSITY OF FLORIDA RESEARCH FOUNDATION, published 2004)
